In patent US20230051715A1 (MABWELL THERAPEUTICS, published 2023):

T1: human C1s mutant M20 (A320S) (human, UniProt P09871 16-688)
T1 construct: The entry is the mutant itself
T1 sequence: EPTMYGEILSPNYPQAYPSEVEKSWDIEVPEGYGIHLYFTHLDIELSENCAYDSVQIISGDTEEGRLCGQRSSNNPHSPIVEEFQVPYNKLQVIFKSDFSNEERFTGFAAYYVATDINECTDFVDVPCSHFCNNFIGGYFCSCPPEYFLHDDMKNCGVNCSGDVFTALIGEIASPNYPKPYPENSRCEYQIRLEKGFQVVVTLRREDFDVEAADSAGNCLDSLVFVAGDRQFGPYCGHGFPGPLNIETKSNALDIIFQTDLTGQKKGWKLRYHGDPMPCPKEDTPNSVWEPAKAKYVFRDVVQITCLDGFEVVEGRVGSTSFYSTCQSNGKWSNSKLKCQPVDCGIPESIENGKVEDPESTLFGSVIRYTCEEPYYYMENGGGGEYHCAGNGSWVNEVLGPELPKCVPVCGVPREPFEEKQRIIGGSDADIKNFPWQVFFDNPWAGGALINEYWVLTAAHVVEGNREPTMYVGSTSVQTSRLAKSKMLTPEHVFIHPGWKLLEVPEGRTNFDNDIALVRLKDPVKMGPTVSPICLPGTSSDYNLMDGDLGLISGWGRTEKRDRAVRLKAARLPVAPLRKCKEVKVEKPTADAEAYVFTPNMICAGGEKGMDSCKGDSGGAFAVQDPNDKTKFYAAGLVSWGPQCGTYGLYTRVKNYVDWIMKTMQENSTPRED

T2: cynomolgus monkey C1s (produced in house) (cynomolgus monkey, UniProt P09871 16-685 (human entry), limits assumed)
T2 construct: also called CyC1s
T2 chain: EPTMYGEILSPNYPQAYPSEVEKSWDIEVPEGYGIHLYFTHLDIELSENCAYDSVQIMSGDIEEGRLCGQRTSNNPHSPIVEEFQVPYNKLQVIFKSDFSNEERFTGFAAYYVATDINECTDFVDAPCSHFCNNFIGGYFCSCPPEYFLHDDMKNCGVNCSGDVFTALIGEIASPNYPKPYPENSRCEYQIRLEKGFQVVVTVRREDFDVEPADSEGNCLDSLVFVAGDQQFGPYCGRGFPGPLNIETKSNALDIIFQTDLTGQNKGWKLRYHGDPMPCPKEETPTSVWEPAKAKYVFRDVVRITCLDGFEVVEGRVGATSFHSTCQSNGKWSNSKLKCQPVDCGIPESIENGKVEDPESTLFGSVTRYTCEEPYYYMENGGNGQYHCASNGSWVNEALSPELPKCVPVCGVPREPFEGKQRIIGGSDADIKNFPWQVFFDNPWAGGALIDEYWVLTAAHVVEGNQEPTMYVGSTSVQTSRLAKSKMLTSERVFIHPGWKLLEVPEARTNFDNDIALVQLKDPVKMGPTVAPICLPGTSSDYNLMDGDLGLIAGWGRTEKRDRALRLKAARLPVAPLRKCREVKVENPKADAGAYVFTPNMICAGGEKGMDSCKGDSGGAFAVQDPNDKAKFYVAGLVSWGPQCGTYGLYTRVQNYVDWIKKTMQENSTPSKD


Tests used:
[1] = target: T1, human C1s mutant M20 (A320S); test: ELISA, plate coated with human C1s mutant M20: A320S, OD450nm
Protocol: ELISA was carried out by first coating 96-well plates with 200 ng/well of full-length or truncated C1s proteins overnight. The next morning, plates were blocked with SuperBlock T20 blocking buffer (Thermo Scientific 37536) for 1 h with gentle shaking. Then, various concentrations of anti-C1s antibodies diluted in SuperBlock T20 blocking buffer were added to the plates and incubated for 1 h with gentle shaking. Mouse IgG (Sigma-Aldrich 15381) and human IgG1 (BioXCell BP0297) were used as negative controls. The plates were washed before incubating with HRP conjugated secondary antibodies diluted in SuperBlock T20 blocking buffer (goat anti-mouse IgG (H+L) cross-adsorbed secondary antibody HRP (Invitrogen G-21040) or goat anti-human IgG antibody, HRP conjugate (Millipore AP309P)) for 1 h with gentle shaking. At last, the plates were washed and color developed with ELISA liquid HRP substrate (Sigma-Aldrich), followed by stopping the reaction with addition of 1M H₂SO₄ in the same volume as the ELISA liquid substrate. Bound antibody was measured by absorbance at OD₄₅₀ₙₘ.
Binding of anti-C1s antibodies to mutants M1-M20 of human C1s was measured by ELISA as described in Example 4, and results are shown in FIGS. 6B-6U. All anti-C1s humanized variants including hz2-7(H1L2), hz2-8(H1L2 G80A) and hz2-8(H1L2 G80A/T82A) maintained strong binding properties to the majority (16 out of 20) of C1s mutants including M1 (FIG. 6B), M2 (FIG. 6C), M3 (FIG. 6D). M4 (FIG. 6E), M7 (FIG. 6H), M8 (FIG. 6I), M10 (FIG. 6K), M11 (FIG. 6L), M12 (FIG. 6M), M13 (FIG. 6N), M15 (FIG. 6P), M16 (FIG. 6Q), M17 (FIG. 6R), M18 (FIG. 6S), M19 (FIG. 6T) and M20 (FIG. 6U).

[2] = target: T2, cynomolgus monkey C1s (produced in …); test: ELISA, plate coated with 200 ng/well CyC1s, OD450nm
Protocol: The next morning, plates were blocked with SuperBlock T20 blocking buffer (Thermo Scientific 37536) for 1 h with gentle shaking. Then, various concentrations of anti-C1s antibodies diluted in SuperBlock T20 blocking buffer were added to the plates and incubated for 1 h with gentle shaking. Mouse IgG (Sigma-Aldrich I5381) and Human IgG1 (BioXCell BP0297) were used as negative controls. The plates were washed before incubating with HRP conjugated secondary antibodies diluted in SuperBlock T20 blocking buffer (goat anti-mouse IgG (H+L) cross-adsorbed secondary antibody HRP (Invitrogen G-21040) or goat anti-human IgG antibody, HRP conjugate (Millipore AP309P)) for 1 h with gentle shaking. At last, the plates were washed and color developed with ELISA liquid substrate (Sigma-Aldrich), followed by stopping the reaction with addition of the same volume of […] 1M H₂SO₄. Bound antibody was measured by absorbance at OD₄₅₀ₙₘ.

Row | Binder | EC50 [1] [µg/mL] | EC50 [2] [µg/mL]
1 | Anti-C1s antibody hz2-8 (H1L2 G80A) (antibody, V domains shown, Humanized variant with G80A in HC CDR2 (already in the entry), human IgG1 / kappa) VH: QVQLVQSGAEVKKPGASVKVSCKASGFNIKEYYMHWVRQAPEQGLEWMGWIDPENADTIYAQKFQGRVTITADTSTNTAYMELSSLRSEDTAVYYCARSRLFFAYWGQGTLVTVSS VL: DIQMTQSPKSLSASVGDRVTITCRASQDVRTALDWYQQKPGQSPKLLIYSASYRYSGVPSRFSGSGSGTDFTLTISSLQPEDFATYYCQQQYTTPYTFGQGTKLEIKR | 0.003 | –
2 | Anti-C1s antibody 2-8 (antibody, V domains shown, the HC/LC entries may hold it too; also called clone 2-8) VH: EVQLQQSGAELVRPGALVKLSCKASGFNIKEYYMHWVKQRPEQGLEWIGWIDPENGDTIYDPKFQGKASITADTSSNTAYLQLSSLTSEDTAVYYCARSRLFFAYWGQGTLVTVSA VL: DIVMTQSHKFMSTSVGDRVSFTCKASQDVRTAVDWYQQKPGQSPKLLIYSASYRYTGVPDRFTGTGSGTDFTFTISSVQAEDLAVYFCQQQYTTPYTFGGGTKLEIKT | – | 0.012
3 | Anti-C1s antibody 2-7 (antibody, human IgG1, kappa, V domains shown, the HC/LC entries may hold it too; also called clone 2-7) VH: EVKLEESGGGLVPPGGSMKLSCVASGFTFSNYFMNWVRQSPEKGLEWVAEIRLKFTNYATHYAESVEGRFTISRDDSKSSVYLQMNNLRAEDTGIYYCTRDYGSRNGYFDYWGQGTTLTVSS VL: DIVMTQAAPSVPVTPGESVSISCRSSKSLLHSNGNTFLYWFLQRPGQSPQLLIYRMSNLASGVPDRFSGSGSGTAFTLRVSRVEAEDVGIYYCMQHLEYPYTFGGGTKLEIKT | – | 0.011

The remaining lines, values ahead:

Row | EC50 [1] [µg/mL] | EC50 [2] [µg/mL] | Binder
4 | 0.005 | 0.01 | Anti-C1s antibody hz2-8 (H1L2 G80A/T82A) (antibody, V domains shown, Humanized variant with G80A and T82A in HC CDR2 (already in the entry), human IgG1 / kappa) VH: QVQLVQSGAEVKKPGASVKVSCKASGFNIKEYYMHWVRQAPEQGLEWMGWIDPENADAIYAQKFQGRVTITADTSTNTAYMELSSLRSEDTAVYYCARSRLFFAYWGQGTLVTVSS VL: DIQMTQSPKSLSASVGDRVTITCRASQDVRTALDWYQQKPGQSPKLLIYSASYRYSGVPSRFSGSGSGTDFTLTISSLQPEDFATYYCQQQYTTPYTFGQGTKLEIKR
5 | 0.004 | 0.015 | Anti-C1s antibody hz2-7(H1L2) (antibody, V domains shown, Humanized, human IgG1 / kappa; also called hz2-7(1L2)) VH: EVQLLESGGGLVQPGGSLRLSCAASGFTFSNYFMNWVRQAPGKGLEWVSEIRLKFTNYATHYADSVKGRFTISRDDSKSTLYLQMNSLRAEDTAVYYCTRDYGSRNGYFDYWGQGTLVTVSS VL: DIVMTQTPLSLPVTPGEPASISCRSSKSLLHSNGNTFLYWFLQKPGQSPQLLIYRMSNLASGVPDRFSGSGSGTDFTLKISRVEAEDVGVYYCMQHLEYPYTFGGGTKLEIKR
